# Source: doi:10.1101/2022.08.17.504273 (bioRxiv, 2022)
# Positions count from the first letter of the chain named.
# T1: mouse JIP3^185–505 (JIP3 186-505) (mouse, UniProt Q9ESN9-5 186-505)
# T1 sequence: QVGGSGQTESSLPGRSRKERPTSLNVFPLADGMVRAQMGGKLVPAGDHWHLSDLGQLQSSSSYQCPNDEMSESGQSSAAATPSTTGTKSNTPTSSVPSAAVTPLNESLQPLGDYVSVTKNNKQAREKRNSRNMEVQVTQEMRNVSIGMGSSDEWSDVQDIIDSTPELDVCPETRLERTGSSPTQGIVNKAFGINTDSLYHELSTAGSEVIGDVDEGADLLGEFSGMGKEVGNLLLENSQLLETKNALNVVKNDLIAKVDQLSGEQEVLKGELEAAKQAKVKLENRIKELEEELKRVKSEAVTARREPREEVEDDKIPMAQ
# T2: mouse JIP3 186-505_L383A/E386A (mouse, UniProt Q9ESN9-5 186-505, L383A | E386A)
# T2 sequence: T1 sequence with L198A, E201A
# T3: JIP3 RH1 domain (JIP3 1-108) (mouse, UniProt Q9ESN9-5 1-108)
# T3 sequence: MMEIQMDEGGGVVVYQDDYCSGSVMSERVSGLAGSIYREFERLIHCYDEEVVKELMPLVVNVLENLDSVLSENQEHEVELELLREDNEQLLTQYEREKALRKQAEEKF
# B1: JIP3^1–560 (domain or fragment)
# chain: MMEIQMDEGGGVVVYQDDYCSGSVMSERVSGLAGSIYREFERLIHCYDEEVVKELMPLVVNVLENLDSVLSENQEHEVELELLREDNEQLLTQYEREKALRRQAEEKFIEFEDALEQEKKELQIQVEHYEFQTRQLELKAKNYADQISRLEERESEMKKEYNALHQRHTEMIQTYVEHIERSKMQQVGGNSQTESSLPGRRKERPTSLNVFPLADGTVRAQIGGKLVPAGDHWHLSDLGQLQSSSSYQCPQDEMSESGQSSAAATPSTTGTKSNTPTSSVPSAAVTPLNESLQPLGDYGVGSKNSKRAREKRDSRNMEVQVTQEMRNVSIGMGSSDEWSDVQDIIDSTPELDMCPETRLDRTGSSPTQGIVNKAFGINTDSLYHELSTAGSEVIGDVDEGADLLGEFSVRDDFFGMGKEVGNLLLENSQLLETKNALNVVKNDLIAKVDQLSGEQEVLRGELEAAKQAKVKLENRIKELEEELKRVKSEAIIARREPKEEAEDVSSYLCTESDKIPMAQRRRFTRVEMARVLMERNQYKERLMELQEAVRWTEMIRASRE
# B2: dynein light intermediate chain (natural protein)
# chain: MAPVGVEKKLLLGPNGPAVAAAGDLTSEEEEGQSLWSSILSEVSTRARSKLPSGKNILVFGEDGSGKTTLMTKLQGAEHGKKGRGLEYLYLSVHDEDRDDHTRCNVWILDGDLYHKGLLKFAVSAESLPETLVIFVADMSRPWTVMESLQKWASVLREHIDKMKIPPEKMRELERKFVKDFQDYMEPEEGCQGSPQRRGPLTSGSDEENVALPLGDNVLTHNLGIPVLVVCTKCDAVSVLEKEHDYRDEHLDFIQSHLRRFCLQYGAALIYTSVKEEKNLDLLYKYIVHKTYGFHFTTPALVVEKDAVFIPAGWDNEKKIAILHENFTTVKPEDAYEDFIVKPPVRKLVHDKELAAEDEQVFLMKQQSLLAKQPATPTRASESPARGPSGSPRTQGRGGPASVPSSSPGTSVKKPDPNIKNNAASEGVLASFFNSLLSKKTGSPGSPGAGGVQSTAKKSGQKTVLSNVQEELDRMTRKPDSMVTNSSTENEA
# B3: GST-CC1B (GST-Psc-DCTN1(residues 350-547)-GFP-6xHis) (domain or fragment)
# chain: GSDGAASSYQLKQLEEQNARLKDALVRMRDLSSSEKQEHVKLQKLMEKKNQELEVVRQQRERLQEELSQAESTIDELKEQVDAALGAEEMVEMLTDRNLNLEEKVRELRETVGDLEAMNEMNDELQENARETELELREQLDMAGARVREAQKRVEAAQETVADYQQTIKKYRQLTAHLQDVNRELTNQQEASVERQQQ
# B4: LIS1 (full length human) (natural protein)
# chain: MVLSQRQRDELNRAIADYLRSNGYEEAYSVFKKEAELDVNEELDKKYAGLLEKKWTSVIRLQKKVMELESKLNEAKEEFTSGGPLGQKRDPKEWIPRPPEKYALSGHRSPVTRVIFHPVFSVMVSASEDATIKVWDYETGDFERTLKGHTDSVQDISFDHSGKLLASCSADMTIKLWDFQGFECIRTMHGHDHNVSSVAIMPNGDHIVSASRDKTIKMWEVQTGYCVKTFTGHREWVRMVRPNQDGTLIASCSNDQTVRVWVVATKECKAELREHEHVVECISWAPESSYSSISEATGSETKKSGKPGPFLLSGSRDKTIKMWDVSTGMCLMTLVGHDNWVRGVLFHSGGKFILSCADDKTLRVWDYKNKRCMKTLNAHEHFVTSLDFHKTAPYVVTGSVDQTVKVWECR
# B5: MBP-DIC-N (dynein intermediate chain 1-76) (domain or fragment)
# chain: MSDKSELKAELERKKQRLAQIREEKKRKEEERKKKETDQKKEAVAPVQEESDLEKKRREAEALLQSMGLTPESPIV
# B6: JIP3^1–185 (domain or fragment)
# chain: MMEIQMDEGGGVVVYQDDYCSGSVMSERVSGLAGSIYREFERLIHCYDEEVVKELMPLVVNVLENLDSVLSENQEHEVELELLREDNEQLLTQYEREKALRKQAEEKFIEFEDALEQEKKELQIQVEHYEFQTRQLELKAKNYADQISRLEERESEMKKEYNALHQRHTEMIQTYVEHIERSKMQ
# B7: human Arf6 (12-175_Q67L) (domain or fragment)
# chain: KEMRILMLGLDAAGKTTILYKLKLGQSVTTIPTVGFNVETVTYKNVKFNVWDVGGLDKIRPLWRHYYTGTQGLIFVVDCADRDRIDEARQELHRIINDREMRDAIILIFANKQDLPDAMKPHEIQEKLGLTRIRDRNWYVQPSCATSGDGLYEGLTWLTSNYKS
# B8: LIS1-N (residues 1-90) (domain or fragment)
# chain: MVLSQRQRDELNRAIADYLRSNGYEEAYSVFKKEAELDVNEELDKKYAGLLEKKWTSVIRLQKKVMELESKLNEAKEEFTSGGPLGQKRD
# B9: LIS1^mut (natural protein)
# chain: MVASQEARDELNRAIADYLRSNGYEEAYSVFKKEAELDVNEELDKEYAGLLEEEWAAVAELAEEVMELRSKLNEAKEEFTSGGPLGQKRDPKEWIPRPPEKYALSGHRSPVTRVIFHPVFSVMVSASEDATIKVWDYETGDFERTLKGHTDSVQDISFDHSGKLLASCSADMTIKLWDFQGFECIRTMHGHDHNVSSVAIMPNGDHIVSASRDKTIKMWEVQTGYCVKTFTGHREWVRMVRPNQDGTLIASCSNDQTVRVWVVATKECKAELREHEHVVECISWAPESSYSSISEATGSETKKSGKPGPFLLSGSRDKTIKMWDVSTGMCLMTLVGHDNWVRGVLFHSGGKFILSCADDKTLRVWDYKNKRCMKTLNAHEHFVTSLDFHKTAPYVVTGSVDQTVKVWECR
# B10: GCN4-WD40-SNAP (other)
# chain: GSGSVKQLEDKVEELLSKNAHLENEVARLKKLVSGGPLGQKRDPKEWIPRPPEKYALSGHRSPVTRVIFHPVFSVMVSASEDATIKVWDYETGDFERTLKGHTDSVQDISFDHSGKLLASCSADMTIKLWDFQGFECIRTMHGHDHNVSSVAIMPNGDHIVSASRDKTIKMWEVQTGYCVKTFTGHREWVRMVRPNQDGTLIASCSNDQTVRVWVVATKECKAELREHEHVVECISWAPESSYSSISEATGSETKKSGKPGPFLLSGSRDKTIKMWDVSTGMCLMTLVGHDNWVRGVLFHSGGKFILSCADDKTLRVWDYKNKRCMKTLNAHEHFVTSLDFHKTAPYVVTGSVDQTVKVWECR
# Legend:
# [1] = target: dynactin pointed end complex (ZZ-TEV-Arp11, p62, p25, p27) (human, UniProt Q9NZ32;Q9UJW0-1;Q9BTE1;O00399); assay: SEC
# Chain of dynactin pointed end complex (ZZ-TEV-Arp11, p62, p25, p27) (Q9NZ32 whole entry, chain 1 of 4): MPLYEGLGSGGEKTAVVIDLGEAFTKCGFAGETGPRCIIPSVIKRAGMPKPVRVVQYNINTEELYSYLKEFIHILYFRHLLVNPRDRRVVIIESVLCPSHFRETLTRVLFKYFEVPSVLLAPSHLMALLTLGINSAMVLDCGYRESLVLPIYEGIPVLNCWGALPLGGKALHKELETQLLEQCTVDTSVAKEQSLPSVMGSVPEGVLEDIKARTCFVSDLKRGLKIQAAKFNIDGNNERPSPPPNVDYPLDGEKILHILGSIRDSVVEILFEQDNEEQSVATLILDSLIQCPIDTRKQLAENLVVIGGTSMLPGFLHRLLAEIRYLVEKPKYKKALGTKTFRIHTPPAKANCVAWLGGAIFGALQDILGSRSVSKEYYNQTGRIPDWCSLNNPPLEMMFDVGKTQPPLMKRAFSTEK
# Chain of dynactin pointed end complex (ZZ-TEV-Arp11, p62, p25, p27) (Q9UJW0 whole entry, chain 2 of 4): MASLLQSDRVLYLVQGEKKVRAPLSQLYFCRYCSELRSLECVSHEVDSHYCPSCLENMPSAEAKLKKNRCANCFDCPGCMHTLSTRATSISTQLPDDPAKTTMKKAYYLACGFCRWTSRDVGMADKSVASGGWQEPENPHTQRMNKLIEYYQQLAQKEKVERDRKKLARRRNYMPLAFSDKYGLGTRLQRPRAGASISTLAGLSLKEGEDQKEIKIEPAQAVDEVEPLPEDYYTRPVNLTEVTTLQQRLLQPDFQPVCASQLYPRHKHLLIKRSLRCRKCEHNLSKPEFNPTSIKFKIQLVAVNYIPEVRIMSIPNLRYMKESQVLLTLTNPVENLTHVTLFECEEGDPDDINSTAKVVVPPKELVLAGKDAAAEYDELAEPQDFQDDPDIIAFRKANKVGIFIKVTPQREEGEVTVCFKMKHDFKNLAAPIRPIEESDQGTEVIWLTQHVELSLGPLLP
# Chain of dynactin pointed end complex (ZZ-TEV-Arp11, p62, p25, p27) (Q9BTE1 whole entry, chain 3 of 4): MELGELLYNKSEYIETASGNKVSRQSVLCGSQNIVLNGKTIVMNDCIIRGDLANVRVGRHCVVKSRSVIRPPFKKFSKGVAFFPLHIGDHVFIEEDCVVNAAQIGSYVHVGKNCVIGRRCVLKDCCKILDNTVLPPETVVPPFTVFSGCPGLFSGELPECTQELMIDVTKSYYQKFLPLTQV
# Chain of dynactin pointed end complex (ZZ-TEV-Arp11, p62, p25, p27) (O00399 whole entry, chain 4 of 4): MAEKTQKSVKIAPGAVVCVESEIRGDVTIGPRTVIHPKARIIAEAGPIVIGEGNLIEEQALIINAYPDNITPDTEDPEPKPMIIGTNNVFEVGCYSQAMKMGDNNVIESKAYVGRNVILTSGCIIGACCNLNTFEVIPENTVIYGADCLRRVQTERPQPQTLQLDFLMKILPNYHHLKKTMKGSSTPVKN
# JIP3^1–560 = target: B1; assay: cryo-EM structure
# LIS1 (full length human) = target: B4; assay: pull-down
# cryo-EM structure = target: the molecule itself; assay: cryo-EM structure
# [2] = target: B3; assay: pull-down
# [3] = target: GST-CC1A/B (GST-Psc-DCTN1(residues 214-547)-GFP-6xHis) (human (by the printed UniProt entry), UniProt Q14203-1 214-547); assay: pull-down
# [4] = target: B2; assay: cryo-EM structure
# [5] = target: T1, mouse JIP3^185–505 (JIP3 186-505); assay: pull-down
# [6] = target: T2, mouse JIP3 186-505_L383A/E386A; assay: pull-down
# SEC-MALS = target: the molecule itself; assay: SEC-MALS
# [7] = target: T3, JIP3 RH1 domain (JIP3 1-108); assay: pull-down
binder,measurement,setting,value
B1,binding result,[1],binds
B2,binding result,JIP3^1–560,binds
B3,binding result,LIS1 (full length human),binds
B4,binding result,cryo-EM structure,binds
B5,binding result,[2],binds
same,binding result,[3],binds
B6,binding result,[4],binds
B7,binding result,[5],binds
same,binding result,[6],binds
B8,binding result,[2],binds
B9,stoichiometry N,SEC-MALS,2
B10,stoichiometry N,SEC-MALS,2
SVQEKKKSTIWQFFSRLFSSSSS (domain or fragment) [GST-JIP3^563–585 (JIP3^helix construct)],binding result,[7],binds
